Experiment: soluble on expression in E. coli; label from the status in PepcDB or PDB records

| Sequence | soluble on expression in E. coli |
| --- | --- |
| MCAKATMEEFEALLNESLQIDTPQEGSVVKGKVIAVEAGQAIIDVGYKMEGRVDLKEFADMSGSVDISVGDEVEVYLDRVENARGEAVISRDKAKREEAWDRLEKAYANETRVEGAIFGRVKGGFTVDLGGAVAFLPGSQVDVRPVRDAGPLMGMKQPFQILKMDRRRGNIVVSRRAILEESRAEQRAEVISNLFEGQTVDGVVKNITEYGAFVDLGGVDGLLHVTDMAWRRVNHPSEILSIGETVKVQVIKINKETHRISLGMKQLQSDPWDAVEKAYPIGSVHKGRVTNITDYGAFVELEAGVEGLVHVSEMSWTKKNVHPGKIVSTSQEVDVMVLEIDSAKRRVSLGLKQTMRNPWEVFAETHPVGTPIEGEVKNITEFGLFVGLEHDIDGMVHLSDLSWDQRGEEAIQNYRKGDVVKAVVTEVDTDKERISLSIKALGDDTFSEAIEGVKRGSVITVTVTAIEDGGIEVEYNSMKSFIRRSDLSRDRADQRPERFQVGDKVDVRVTNVDAKTRRLGLSIKAREIAEEKEAVEQYGSSDSGASLGDILGAALRNSDRGLEHHHHHH | soluble |
| MAHHHHHHMKWSAVCLLKRDFDAWAYSINWPQRKSHLPLLGSVSLTVEDIKFAYNAWCLLRLAMFFGTGHPKILSPLVNTTPSMDIMYGGNRLFYMHAEVGASLSRHKPKVALTPSHPDAQPVQSFPWRKVIREAGERRTGNEDCDGGVEIVLGMENGLSENVVSQCDYCLYIPQYGSIGSLSMISAMAIALHSAASAHVDQYMRDDDRVSPCSSRGHMPLSNGSLKVTKGNNLPHETNLLSLSNVEIAEILRARRMSYPMQLSVMVYNEFGDRNIGAIMRNANVFNCEQMIVLHRRKFNRRGALGTQHLIKTLFCSGVDDAQCQKSLEGYTIWLLYQYYPYLKIYEDPNGDEDATFIRPESTLLQEWLQGSYGMNPDHPMMNFHASHMIGTDVYLDDSDSVHAAVRHAANEGYRGIVLVVPEEGASFQRDIVKKARRIAYVVHPDRLARNVQRGLNGALSSAIALERLRTAIDGLQ | not soluble |
| MGSDKIHHHHHHMNHIMLGTTNISIFPLVFGTLPLGPLQAGLSPSEGGRLIRHALEHGVTMIDTATLYDTYPHVREGIAGWQGDVTIVTKTHANDGPTARAHVEKGLRELGRERLDIVHLHGARVADPFSDRADVLAELLRMKDEGKIGHVGLSSHYICAILKAADHPEIEVVHPLINRTGMGILDGSAAEMAEAIAACARAGKGVYAMKALAGGNLIAEARASLAYVRGLEGVHGVAIGMLSEAEVEANIALFSGNAPEDEVWRQLESRRRKLRIMENFCKGCGGCVEACASGALTVVNGKAVLDEAACILCGYCAASCPEFIIRVV | not soluble |
| MGSDKIHHHHHHMIDFIYSFQNMEQINSSSWHLPTQYFLNRNNKMEATNTHDIQGLSARKTVEAYLAAFAEGKLDDIVSLLDDNVVWHIDGEPGVSTVGLLQGPGRVRRWLQNFPQNFRPLDFSISDIIAHNDSVLVLGRFRHTVLSTGNAVGSDMIIHFKVSGSKITRYQMFEDSALLSRAFDASDEWQLQQVRINGTLYRYRDIGEGPTLIFAHGLFANHEIFSAQFQILSKSYRCIVLDMPGHGLSEYDPAGWKLDDLSRDLALMIQELSLGKVTFIGQSQGGMVAIRLAAHYPQLVSGLVLIGTSARAEFPERLQNWHRQRDILLTGSEHAREDLFKKIQSHINNEAWLQNNQGEAARERRIMLSHNRTGLALALDAAVFERGDITELLADISAPTLIICGEQDTATPVELSQEIATLIADASILILAKTGHHPPTEAAQAVTAAIAEFLKLECSNHH | not soluble |
| MSLSIPLILASQSRPRRDVLFSAGICPTIRVSHVDEPAALEREAAALGVTVNDLSVEQRVMILATAKAEAVHQAYRNIADTAAHARGERVVGFPLRAADDRDASSAGTAARTDSAQSADETKTRDFSGIAIPTVAEPIADFVDGRPSLTRSKAGPLILGCDSMFLLDGECYGKPHSEEVARERLRAMRGATGELWTGHCLIDFASGRMVRGASKATLHFCEYSDLDIERYIATGEPLEVAGSFTLEGFGGAFIDSIEGDPHGIIGLSLPLARRLAAQLGVEWTDLWNVTRSDLAPDAEYDAKTGAAKPLPPKENVHQPGDGWVDCACGRKHWGTNGASGVLLARRSETTGEVTHVVMQHRAVWSAEGGTWGIPGGATADGESPIEGALRESYEEANITPEDIDVVGSYCEDHGPWSYTTVFAFEKPGHRIEPKANDDESMEIEWVPVDDVPNRKLLTAMRTDWPNFAARLRALAAVREGHHHHHH | soluble |
| MVISLKNRNFLKLLDYTPAEIQHLIDLAIELKAAKKAGCEKQTLIGKNIALIFEKTSTRTRCAFEVAAFDQGAQVTYLGPSGSQIGHKESMKDTARVLGRMYDGIEYRGFGQHIVEELGEYAGVPVWNGLTDEFHPTQILADLMTMLEHAPGKTLPELSFAYLGDARNNMGNSLMVGAAKMGMDIRLIAPKSFWPDAALVAQCREIASVTGARITLTESVEDGVHGVDFLYTDVWVSMGEPKEAWAERVSLMTPYQVNQQVVNATGNPDVKFMHCLPAFHNEHTKVGREIEMAYGLKGLEVTEEVFESAGSIVFDEAENRMHTIKAVMVATLGD | not soluble |
| MNDHSQLFRLLALLLDYPRAELREESLGLHALIRTCELPEALRDGLAALLNELCQGDLLDVQARYDGLFERGRSVSLLLFEHVHGESRDRGQAMVDLLDRYTGAGLQIDVPELPDYLPLYLEYLSLLPFAAASEGLAEVAHILGLLALRLEERGSAYAAIFEALLELGGERPDLGALRRDQAQEQRDDSLEAIDRAWEETPVSFTDPAGGCPSSSGRRPTASTEQPLQWVAQPVPQM | not soluble |
| TEQATTTDELAFTRPYGEQEKQILTAEAVEFLTELVTHFTPQRNKLLAARIQQQQDIDNGTLPDFISETASIRDADWKIRGIPADLEDRRVEITGPVERKMVINALNANVKVFMADFEDSLAPDWNKVIDGQINLRDAVNGTISYTNEAGKIYQLKPNPAVLICRVRGLHLPEKHVTWRGEAIPGSLFDFALYFFHNYQALLAKGSGPYFYLPKTQSWQEAAWWSEVFSYAEDRFNLPRGTIKATLLIETLPAVFQMDEILHALRDHIVGLNCGRWDYIFSYIKTLKNYPDRVLPDRQAVTMDKPFLNAYSRLLIKTCHKRGAFAMGGMAAFIPSKDEEHNNQVLNKVKADKSLEANNGHDGTWIAHPGLADTAMAVFNDILGSRKNQLEVMREQDAPITADQLLAPCDGERTEEGMRANIRVAVQYIEAWISGNGCVPIYGLMEDAATAEISRTSIWQWIHHQKTLSNGKPVTKALFRQMLGEEMKVIASELGEERFSQGRFDDAARLMEQITTSDELIDFLTLPGYRLLA | soluble |
| MSLKKQRIVVKIGSSSLTNSKGSIDEAKIREHVQAISVLKKAGHEMILITSGAVAAGFSSLGYPSRPVTIKGKQAAAAVGQTLLMQQYMNQFKQYSLTPGQILLTRNDFSKRERYRNAYATIMELLERGVIPIINENDSTSVEELTFGDNDMLSALVSGLIHADQLMILTDINGLYDANPNENPEAKRFDYLPEITPELLGYAGSAGSKVGTGGMKSKLLATQTALSLGVKVFIGTGSGEQKLADILDGRGDGTYIGDKELSSVNNTRQWIQFHSPISGEIIIDAGAEEAMIHNGSSLLPAGVVGVNGSFPKGAVVEVRGPGGVIGKGQTHYSSEEIMEAKGKRSDELDFEKTFEVIHEGHHHHHH | soluble |
| NADAQTKLQIIDLKTRLRLALPNLPGGDLRGVNFSADASQLVFYINSDTSPSNLYVHKLGSTGVKRLTNTGNPNILEDNLVEGEVVRFKSFDGLDIPGILYKPKQAEFNKVPALVFIHGGPGGQSRKGYSALVQHLVNNGYAIFKVNNRGSSGYGKTFFHLDDKKHGDHDLKDVVYNKYYLQSLDWVDKDRIGVIGGSYGGYLTMAAMAFTDEFQAGVNIFGVTNWVRTLESIPPYWEAFRKSLYDELGDPNTDKERLHNISPVFFGHQIKKPVLVVQGKNDPRVLKIESDEMVDSIRSGGTYVDYLVFDDEGHGFSKKANRIEASNKYLNFFKTQL | not soluble |
| MNDFTTEIVQTLVTKGDLNELFRSHLEKAINTLLRTELTAFLDYEKYDRTGFNSGNSRNGSYFRSIKTEYGELTLEIPRDRNGEFKQQTLPAYKRTNDTLETTIIHLFEKGVTMSEIADLIEKMYGHHYTPQTMSNMTKVLTEEVNAFKSRALNDKYVAIFMDATYIPLKRQTVSKEAIYIAIGIREDGTKEVLSYAIAPTESTYVWNELLQDINSRGVQEVLLFITDGLKGMKDTIHQIYPKAKYQHCCIHVSRNIAHKVRVKDRKEICDDFKAVYQANSKEEANTFLSGMIEKWKKNYPKVTQSLIENQDLLTFYDFPPSIRRTIYSTNLIESFNKQIKRYSRRKEQFQNEESLERFLVSIFDTYNQKFLNRSHKGFQQVTDTLVSMFTE | not soluble |
| MASYKKERLENDIIRLINRTVIHEIYNETVKTGHVTHVKLSDDLLHVTVYLDCYNREQIDRVVGAFNQAKGVFSRVLAHNLYLAKAVQIHFVKDKAIDNAMRIESIINSLKKSKPN | soluble |
| GPGSMARNKIALIGSGMIGGTLAHLAGLKELGDVVLFDIAEGTPQGKGLDIAESSPVDGFDAKFTGANDYAAIEGADVVIVTAGVPRKPGMSRDDLLGINLKVMEQVGAGIKKYAPEAFVICITNPLDAMVWALQKFSGLPAHKVVGMAGVLDSARFRYFLSEEFNVSVEDVTVFVLGGHGDSMVPLARYSTVAGIPLPDLVKMGWTSQDKLDKIIQRTRDGGAEIVGLLKTGSAFYAPAASAIQMAESYLKDKKRVLPVAAQLSGQYGVKDMYVGVPTVIGANGVERIIEIDLDKDEKAQFDKSVASVAGLCEACIGIAPSLK | soluble |
| MAATRAYHHGDLRRSVLSAALEVIRSDGVAAISLRDLARRAEVSHAAPAHHFKDKAGLLTAIATEGFELLAAALTAVPAGTTHRLREMGVRYVEFALDHPAHFDVMFRPQLLHVGDPELTAARERASRALASGVEDLPDMRAGLDARRAGLTAWSLAHGFATLQLGGSLPPLDDDPAEAFRALVADRLVVRLP | not soluble |
| MAHHHHHHMADYNAAGADTAVVDDNVPPGITTKQDEIIQYVAKYVVASCDGARYQDKVRTRTKHNPYFDFLNAKHPYHQYYQYLLESYRHWMRNSEAVGAGTWGGGVDATQGQGQQQQWNEEDYYQYYGAYAGQASGIEFQGNAAGQLGEGSSYVDASSSAHARNASSGVDPTSYESEAVTATGYGAGYDPSAVDPEPAQVATTAGGGEAQAEEDEDDEYELVMENGQWVSRKRM | soluble |
| RIDNRNDEILRITGNPYHPLSHQQHIPFETPVKDAYLSLAGEAGLDGRSTACARGNGMLEIRNSPYRITQPLKRVGKRGEGKWIPISYEQLIEEVVEGGDLFGEGHVDGLRDIRDLTTPVDPENPEYGPKANQLLMTNAGNEGRDDIFKRFAFNSYGTRNFGHHGSYCGYAFRAGSGAFMNDLDKNAHLKPDFDNAEYIIFIGMSPAQAGNPFKRQARQLANARTEGSLE | not soluble |
| SLDSNESKLKQKSPAEFFAENKNIAGFDNPGKSLYTTVRELVENALDSAESIEG | soluble |
| MKTMSEEDSRTASRYAMIREVLRNAIVSGAAAKGLVLLEAPLGELFGTSRVPVRKALNLLHEEGLISRFDGRGYLVNPERQHVEPLRLSLSHKQFGLDSNEELVDTRPLGERIHDEIGAALSACIAFGHYRLDEQSAAQHYGVSRSVVREALMRLRDRGLVEKEPYSQWLAGPLTAREITEDYELRACLEPEALRLTAPQLSRETLEAMLTRVVEAQNAEQCSLEDIERLEEDLHQQCLAGLQNRKIATLISQAQSPMIINRIFYRLLDIGADEAMLAEHRLIIELLLHGAFDAAALNLKEHLQRARQRMLQRLKVLSVLPEQEVPGYLTRLS | not soluble |
| MGSDKIHHHHHHMKYALGNILYYWPKEDVEAFYQAAVNSSADIVYLGETVCSKRRLMKVADWFNVAREVANSGKQVVISTLALLQAPSELTELRRYVENGEFLLEANDLGAVNIAAERNLPFVAGHALNCYNAYTLRVLHKQGMVRWCMPVELSRDWLQNLLNQCEELGFRHQFEVEVLSYGHLPLAYSARCFTARSEDRPKDECETCCLSYPQGRKMLSQENQQVFVLNGIQTQSGYCYNLGNELTSMRDLVDIVRLSPNDITTPAMLDTFRANEQGNMPLTLQNQADCNGYWRRVAGLELVQ | not soluble |
